In patent US20200354427A1 (Eli Lilly, published 2020):

T1: human RANKL (receptor activator of nuclear factor kappa-B ligand) (human, UniProt O14788 140-317, limits assumed)
T1 sequence (looked up): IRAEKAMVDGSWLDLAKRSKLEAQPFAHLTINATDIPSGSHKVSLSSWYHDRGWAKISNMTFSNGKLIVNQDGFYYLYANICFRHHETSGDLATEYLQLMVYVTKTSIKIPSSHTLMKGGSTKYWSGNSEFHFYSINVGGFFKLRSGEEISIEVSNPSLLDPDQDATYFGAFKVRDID


Tests used:
[1] = target: PTH receptor (PTHR1 receptor) endogenously expressed by rat osteosarcoma UMR-106 cells (rat) (UniProt P25961); experiment: cell-based or functional assay
Sequence of PTH receptor (PTHR1 receptor) endogenously expressed by rat osteosarcoma UMR-106 cells (rat) (P25961 27-591): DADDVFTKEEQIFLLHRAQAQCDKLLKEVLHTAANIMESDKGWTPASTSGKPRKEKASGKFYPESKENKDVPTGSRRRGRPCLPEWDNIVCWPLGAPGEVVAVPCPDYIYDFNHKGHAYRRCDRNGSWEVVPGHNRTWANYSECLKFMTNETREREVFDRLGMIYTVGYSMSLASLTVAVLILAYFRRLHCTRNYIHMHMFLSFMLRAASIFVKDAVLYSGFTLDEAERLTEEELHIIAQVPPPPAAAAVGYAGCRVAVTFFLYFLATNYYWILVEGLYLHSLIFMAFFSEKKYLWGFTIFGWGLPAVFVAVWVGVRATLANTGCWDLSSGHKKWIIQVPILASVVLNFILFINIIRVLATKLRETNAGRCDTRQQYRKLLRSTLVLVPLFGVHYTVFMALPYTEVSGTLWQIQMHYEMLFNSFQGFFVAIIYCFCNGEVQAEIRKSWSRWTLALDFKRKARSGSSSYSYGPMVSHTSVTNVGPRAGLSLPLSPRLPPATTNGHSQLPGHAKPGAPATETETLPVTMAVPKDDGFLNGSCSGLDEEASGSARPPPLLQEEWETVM

[2] = target: T1, human RANKL (receptor activator of …); experiment: cell-based or functional assay

Row | EC50 (nM); PTHR1 activation, CRE-regulated luciferase luminescence in UMR-106 cells [1] [nM] | IC50 (nM) hRANKL; neutralization of RANKL-induced NF-kB driven luciferase luminescence [2] [nM] | Molecule
1 | 5.6 | – | PTH peptide (a 38 amino acid parathyroid hormone peptide)
2 | – | 0.069 | RANKL neutralizing antibody (an IgG4 RANKL mAb having the same HC and LC amino acid sequences as the mAb portion of the exemplified fusion compound) (antibody, V domains shown) VH: QVQLVQSGAEVKKPGSSVKVSCKASGYAFTNYYIEWVRQAPGQGLEWMGVINPGWGDTNYNEKFKGRVTITADKSTSTAYMELSSLRSEDTAVYYCARRDTAHGYYALDPWGQGTTVTVSS VL: DIQMTQSPSSLSASVGDRVTITCKASQNVGTNVAWYQQKPGKAPKLLIYSASYRYSGVPSRFSGSGSGTDFTLTISSLQPEDFATYYCQQYWDYPLTFGGGTKVEIKR
